Experimental data as given in FireProtDB (doi:10.1021/bi00252a018).

B1: Subtilisin inhibitor, P01006 (parent)
chain: MRNTGAGPSPSVSRPPPSAAPLSGAALAAPGDAPSALYAPSALVLTVGKGVSATTAAPERAVTLTCAPGPSGTHPAAGSACADLAAVGGDLNALTRGEDVMCPMVYDPVLLTVDGVWQGKRVSYERVFSNECEMNAHGSSVFAF

Variants of: B1
Settings: Streptomyces albogriseolus; pH 2.9; Thermal; DSC; glycine 25 mM; reversible: yes (70-85%); structure 3SSI; whole UniProt chain shown

| Variant | Tm [°C] | change of melting temperature, mutant - wild type (higher = more stable) [°C] |
| --- | --- | --- |
| D114N | 42.3 | -2.17 |

Same assay, conditions: Streptomyces albogriseolus; pH 2.94; Thermal; DSC; glycine 25 mM; reversible: yes (70-85%); structure 3SSI; whole UniProt chain shown

| Variant | Tm [°C] | change of melting temperature, mutant - wild type (higher = more stable) [°C] |
| --- | --- | --- |
| D114N | 44.8 | 0.88 |
| D114C | 61.2 | 17.2 |

Same assay, conditions: Streptomyces albogriseolus; pH 2.98; Thermal; DSC; glycine 25 mM; reversible: yes (70-85%); structure 3SSI; whole UniProt chain shown

| Variant | Tm [°C] | change of melting temperature, mutant - wild type (higher = more stable) [°C] |
| --- | --- | --- |
| D114N | 45.1 | -0.2 |

Same assay, conditions: Streptomyces albogriseolus; pH 3.04; Thermal; DSC; glycine 25 mM; reversible: yes (70-85%); structure 3SSI; whole UniProt chain shown

| Variant | Tm [°C] | change of melting temperature, mutant - wild type (higher = more stable) [°C] |
| --- | --- | --- |
| D114N | 46.3 | -1.29 |
| D114C | 63.2 | 15.6 |

Same assay, conditions: Streptomyces albogriseolus; pH 3.07; Thermal; DSC; glycine 25 mM; reversible: yes (70-85%); structure 3SSI; whole UniProt chain shown

| Variant | Tm [°C] | change of melting temperature, mutant - wild type (higher = more stable) [°C] |
| --- | --- | --- |
| D114N | 47.3 | -1.43 |
| D114C | 64.5 | 15.7 |

Same assay, conditions: Streptomyces albogriseolus; pH 3.15; Thermal; DSC; glycine 25 mM; reversible: yes (70-85%); structure 3SSI; whole UniProt chain shown

| Variant | Tm [°C] | change of melting temperature, mutant - wild type (higher = more stable) [°C] |
| --- | --- | --- |
| D114N | 50.2 | -1.03 |

Same assay, conditions: Streptomyces albogriseolus; pH 3.16; Thermal; DSC; glycine 25 mM; reversible: yes (70-85%); structure 3SSI; whole UniProt chain shown

| Variant | Tm [°C] | change of melting temperature, mutant - wild type (higher = more stable) [°C] |
| --- | --- | --- |
| D114N | 49.9 | -2.28 |
| D114C | 66.5 | 14.3 |

Same assay, conditions: Streptomyces albogriseolus; pH 3.19; Thermal; DSC; glycine 25 mM; reversible: yes (70-85%); structure 3SSI; whole UniProt chain shown

| Variant | Tm [°C] | change of melting temperature, mutant - wild type (higher = more stable) [°C] |
| --- | --- | --- |
| D114N | 51.4 | -1.95 |

Same assay, conditions: Streptomyces albogriseolus; pH 3.2; Thermal; DSC; glycine 25 mM; reversible: yes (70-85%); structure 3SSI; whole UniProt chain shown

| Variant | Tm [°C] | change of melting temperature, mutant - wild type (higher = more stable) [°C] |
| --- | --- | --- |
| D114N | 51.3 | -2.3 |

Same assay, conditions: Streptomyces albogriseolus; pH 3.21; Thermal; DSC; glycine 25 mM; reversible: yes (70-85%); structure 3SSI; whole UniProt chain shown

| Variant | Tm [°C] | change of melting temperature, mutant - wild type (higher = more stable) [°C] |
| --- | --- | --- |
| D114N | 51.3 | -2.07 |

Same assay, conditions: Streptomyces albogriseolus; pH 7; Thermal; DSC; phosphate 25 mM; reversible: yes (70-85%); structure 3SSI; whole UniProt chain shown

| Variant | Tm [°C] | change of melting temperature, mutant - wild type (higher = more stable) [°C] |
| --- | --- | --- |
| D114N | 83.1 | 1.07 |
| D114C | 95.3 | 13.3 |

Same assay, conditions: Streptomyces albogriseolus; pH 9.5; Thermal; DSC; glycine 25 mM; reversible: yes (70-85%); structure 3SSI; whole UniProt chain shown

| Variant | Tm [°C] | change of melting temperature, mutant - wild type (higher = more stable) [°C] |
| --- | --- | --- |
| D114N | 82.6 | 1.88 |
| D114C | 95 | 14.3 |

Same assay, conditions: Streptomyces albogriseolus; pH 9.75; Thermal; DSC; glycine 25 mM; reversible: yes (70-85%); structure 3SSI; whole UniProt chain shown

| Variant | Tm [°C] | change of melting temperature, mutant - wild type (higher = more stable) [°C] |
| --- | --- | --- |
| D114N | 82.3 | 2.06 |
| D114C | 94.8 | 14.6 |

Same assay, conditions: Streptomyces albogriseolus; pH 2.3; Thermal; DSC; glycine 25 mM; reversible: yes (70-85%); structure 3SSI; whole UniProt chain shown

| Variant | Tm [°C] |
| --- | --- |
| D114C | 48 |

Same assay, conditions: Streptomyces albogriseolus; pH 2.4; Thermal; DSC; glycine 25 mM; reversible: yes (70-85%); structure 3SSI; whole UniProt chain shown

| Variant | Tm [°C] |
| --- | --- |
| D114C | 50 |

Same assay, conditions: Streptomyces albogriseolus; pH 2.5; Thermal; DSC; glycine 25 mM; reversible: yes (70-85%); structure 3SSI; whole UniProt chain shown

| Variant | Tm [°C] |
| --- | --- |
| D114C | 52.5 |

Same assay, conditions: Streptomyces albogriseolus; pH 2.56; Thermal; DSC; glycine 25 mM; reversible: yes (70-85%); structure 3SSI; whole UniProt chain shown

| Variant | Tm [°C] |
| --- | --- |
| D114C | 53.2 |

Same assay, conditions: Streptomyces albogriseolus; pH 2.59; Thermal; DSC; glycine 25 mM; reversible: yes (70-85%); structure 3SSI; whole UniProt chain shown

| Variant | Tm [°C] |
| --- | --- |
| D114C | 54.2 |

Same assay, conditions: Streptomyces albogriseolus; pH 2.68; Thermal; DSC; glycine 25 mM; reversible: yes (70-85%); structure 3SSI; whole UniProt chain shown

| Variant | Tm [°C] |
| --- | --- |
| D114C | 56.2 |

Same assay, conditions: Streptomyces albogriseolus; pH 2.8; Thermal; DSC; glycine 25 mM; reversible: yes (70-85%); structure 3SSI; whole UniProt chain shown

| Variant | Tm [°C] |
| --- | --- |
| D114C | 58.8 |

Same assay, conditions: Streptomyces albogriseolus; pH 2.88; Thermal; DSC; glycine 25 mM; reversible: yes (70-85%); structure 3SSI; whole UniProt chain shown

| Variant | Tm [°C] |
| --- | --- |
| D114C | 59.9 |

Same assay, conditions: Streptomyces albogriseolus; pH 2.89; Thermal; DSC; glycine 25 mM; reversible: yes (70-85%); structure 3SSI; whole UniProt chain shown

| Variant | Tm [°C] |
| --- | --- |
| D114C | 60.5 |

Same assay, conditions: Streptomyces albogriseolus; pH 3.25; Thermal; DSC; glycine 25 mM; reversible: yes (70-85%); structure 3SSI; whole UniProt chain shown

| Variant | Tm [°C] | change of melting temperature, mutant - wild type (higher = more stable) [°C] |
| --- | --- | --- |
| D114C | 68.8 | 13.1 |
